Laboratory results from patent publication US20050113284A1, “Drug for regenerating tissue and vessel and method therefor” (priority 2001, published 2005).

Target: T1, MERMUC bait protein (Homo sapiens, UniProt Q8N307)
T1 construct: Bait-2 corresponds to a 123 amino acid portion of the C-terminus (bait-2); expressed in transfected cells; host or cells: yeast AH109 strain (pGBKT7 bait vector)
T1 sequence (Q8N307 587-709): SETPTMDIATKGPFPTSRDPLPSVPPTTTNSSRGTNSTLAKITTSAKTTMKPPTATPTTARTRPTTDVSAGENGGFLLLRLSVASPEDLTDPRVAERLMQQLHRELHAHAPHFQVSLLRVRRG
Assay: Yeast two-hybrid binding of c-Met prey deletion proteins to MERMUC bait-2
Conditions: yeast growth on SD/-Leu,-Trp,-His and SD/-Leu,-Trp,-Ade; human MERMUC bait-2
Description: The present invention was performed using the reported yeast two-hybrid system (Proc. Natl. Acad. Sci. USA., 1991, Vol. 88, p.9578-9582) based on conventional method and the experimental protocols appended to the reagents.
PCR was performed using DNA (clone No. 3-309) corresponding to the 91 amino acids (amino acids 993-1083 of SEQ ID NO: 4) of the C-terminal region of the human HGF receptor c-Met β chain that was identified in the previous Example to have the binding ability to the cytoplasmic region of human MERMUC as a template. […]
The binding activity between the c-Met prey proteins derived from the 7 DNA fragments and the MERMUC bait protein was analyzed by the yeast two-hybrid system described in Example 1. Specifically, the binding activity was evaluated based on the growth of yeast transformed with the vector on 2 kinds of yeast minimum media, i.e., (1) SD/-Leu, -Trp, -His media and (2) SD/-Leu, -Trp, -Ade media.

Question: With “prey DNA G: c-Met prey protein, amino acids 993-1043 of SEQ ID NO: 4 (RRLLQPEYCPDPLYEVMLKCWHPKAEMRPSFSELVSRISAIFSTFIGEHYV; listed as Homo sapiens)” as the substance, how does the “binding activity with MERMUC bait protein” value read?
Answer: Its value is “− (no binding)”.
